T1: extracellular domain of human BCMA (human, UniProt Q02223 1-54)
T1 construct: amine-linked to Octet AR2G tips; also called hsBCMA; BCMA (human)
T1 sequence: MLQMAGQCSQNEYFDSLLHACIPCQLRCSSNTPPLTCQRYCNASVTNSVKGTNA

B1: AB200-R1a-Fab_VH5 (Fab, V domains shown)
VH: QVQLVQSGAEVKKPGSSVKVSCKASGGTFSNYWMHWVRQAPGQGLEWMGATYRGHSDSNYNNKFKGRVTITADKSTSTAYMELSSLRSEDTAVYYCARGAIYHGYDVLDNWGQGTLVTVSS
VL: DIQMTQSPSSLSASVGDRVTITCSATQDISNYLNWYQQKPGKAPKLLIYFTSNLQSGVPSRFSGSGSGTDFTLTISSLQPEDFATYYCQQYRKLPWTFGQGTKLEIKR
B2: AB200-R1a-Fab_VH13 (Fab, V domains shown)
VH: QVQLVQSGAEVKKPGSSVKVSCKASGGTFSNYWMHWVRQAPGQGLEWMGATYRGHSTTYYAQKYKGRVTITADKSTSTAYMELSSLRSEDTAVYYCARGAIYHGYDVLDNWGQGTLVTVSS
VL: DIQMTQSPSSLSASVGDRVTITCSATQDISNYLNWYQQKPGKAPKLLIYFTSNLQSGVPSRFSGSGSGTDFTLTISSLQPEDFATYYCQQYRKLPWTFGQGTKLEIKR
B3: AB200-R1a-Fab_VH21 (Fab, V domains shown)
VH: QVQLVQSGAEVKKPGSSVKVSCKASGGTFSNYAMHWVRQAPGQGLEWMGATYRGQSDTYYNQKYKGRVTITADKSTSTAYMELSSLRSEDTAVYYCARGAIYHGYDVLDNWGQGTLVTVSS
VL: DIQMTQSPSSLSASVGDRVTITCSATQDISNYLNWYQQKPGKAPKLLIYFTSNLQSGVPSRFSGSGSGTDFTLTISSLQPEDFATYYCQQYRKLPWTFGQGTKLEIKR
B4: AB200-R1a-Fab_VH33 (Fab, V domains shown)
VH: QVQLVQSGAEVKKPGSSVKVSCKASGGTFTNFWMHWVRQAPGQGLEWMGATYRGQSDTYYNQKFKGRVTITADKSTSTAYMELSSLRSEDTAVYYCARGAIYHGYDVLDNWGQGTLVTVSS
VL: DIQMTQSPSSLSASVGDRVTITCSATQDISNYLNWYQQKPGKAPKLLIYFTSNLQSGVPSRFSGSGSGTDFTLTISSLQPEDFATYYCQQYRKLPWTFGQGTKLEIKR
B5: AB200-R1a-Fab_VH19 (Fab, V domains shown)
VH: QVQLVQSGAEVKKPGSSVKVSCKASGGSFSNYWMQWVRQAPGQGLEWMGATYRGHSDTYYNQKFKGRVTITADKSTSTAYMELSSLRSEDTAVYYCARGSIYHGYDVLDNWGQGTLVTVSS
VL: DIQMTQSPSSLSASVGDRVTITCSATQDISNYLNWYQQKPGKAPKLLIYFTSNLQSGVPSRFSGSGSGTDFTLTISSLQPEDFATYYCQQYRKLPWTFGQGTKLEIKR
B6: AB200-R1a-Fab_VH17 (Fab, V domains shown)
VH: QVQLVQSGAEVKKPGSSVKVSCKASGGTFSSYWMHWVRQAPGQGLEWMGATYRGHSDTYYAQKFKGRVTITADKSTSTAYMELSSLRSEDTAVYYCARGAIYHGYEVLDNWGQGTLVTVSS
VL: DIQMTQSPSSLSASVGDRVTITCSATQDISNYLNWYQQKPGKAPKLLIYFTSNLQSGVPSRFSGSGSGTDFTLTISSLQPEDFATYYCQQYRKLPWTFGQGTKLEIKR
B7: AB200-R1a-Fab_VH38 (Fab, V domains shown)
VH: QVQLVQSGAEVKKPGSSVKVSCKASGGTFSNYWMHWVRQAPGQGLEWMGATYRGHSDTYFNQKFKGRVTITADKSTSTAYMELSSLRSEDTAVYYCARGAIFNGYDVLDNWGQGTLVTVSS
VL: DIQMTQSPSSLSASVGDRVTITCSATQDISNYLNWYQQKPGKAPKLLIYFTSNLQSGVPSRFSGSGSGTDFTLTISSLQPEDFATYYCQQYRKLPWTFGQGTKLEIKR
B8: AB200-R1a-Fab_VH26 (Fab, V domains shown)
VH: QVQLVQSGAEVKKPGSSVKVSCKASGGSFSNYWMHWVRQAPGQGLEWMGATYRIHSDTFYNQKFKGRVTITADKSTSTAYMELSSLRSEDTAVYYCARGAIYHGYDVLDNWGQGTLVTVSS
VL: DIQMTQSPSSLSASVGDRVTITCSATQDISNYLNWYQQKPGKAPKLLIYFTSNLQSGVPSRFSGSGSGTDFTLTISSLQPEDFATYYCQQYRKLPWTFGQGTKLEIKR
B9: AB200-R1a-Fab_VH15 (Fab, V domains shown)
VH: QVQLVQSGAEVKKPGSSVKVSCKASGGTYSNYWMHWVRQAPGQGLEWMGATYRGHSDAYYNQRFKGRVTITADKSTSTAYMELSSLRSEDTAVYYCARGAIYHGYDVLDNWGQGTLVTVSS
VL: DIQMTQSPSSLSASVGDRVTITCSATQDISNYLNWYQQKPGKAPKLLIYFTSNLQSGVPSRFSGSGSGTDFTLTISSLQPEDFATYYCQQYRKLPWTFGQGTKLEIKR
B10: AB200-R1a-Fab_VH23 (Fab, V domains shown)
VH: QVQLVQSGAEVKKPGSSVKVSCKASGGTFSNYYMHWVRQAPGQGLEWMGATYRGHSDTFYAQKFKGRVTITADKSTSTAYMELSSLRSEDTAVYYCARGAIYHGYDVLDNWGQGTLVTVSS
VL: DIQMTQSPSSLSASVGDRVTITCSATQDISNYLNWYQQKPGKAPKLLIYFTSNLQSGVPSRFSGSGSGTDFTLTISSLQPEDFATYYCQQYRKLPWTFGQGTKLEIKR
B11: AB200-R1a-Fab_VH37 (Fab, V domains shown)
VH: QVQLVQSGAEVKKPGSSVKVSCKASGGTFTNYWMHWVRQAPGQGLEWMGATYKGHSDTYYNQKFRGRVTITADKSTSTAYMELSSLRSEDTAVYYCARGAIYHGYDVLDNWGQGTLVTVSS
VL: DIQMTQSPSSLSASVGDRVTITCSATQDISNYLNWYQQKPGKAPKLLIYFTSNLQSGVPSRFSGSGSGTDFTLTISSLQPEDFATYYCQQYRKLPWTFGQGTKLEIKR
B12: AB200-R1a-Fab_VH30 (Fab, V domains shown)
VH: QVQLVQSGAEVKKPGSSVKVSCKASGGTYSNYWMHWVRQAPGQGLEWMGATYRGHTDTYYNQKFKGRVTITADKSTSTAYMELSSLRSEDTAVYYCARGAIYHGYDVMDNWGQGTLVTVSS
VL: DIQMTQSPSSLSASVGDRVTITCSATQDISNYLNWYQQKPGKAPKLLIYFTSNLQSGVPSRFSGSGSGTDFTLTISSLQPEDFATYYCQQYRKLPWTFGQGTKLEIKR
B13: AB200-R1a-Fab_VH35 (Fab, V domains shown)
VH: QVQLVQSGAEVKKPGSSVKVSCKASGGTFSNYWIHWVRQAPGQGLEWMGATFKGHSDTYYNQKFKGRVTITADKSTSTAYMELSSLRSEDTAVYYCARGAIYHGYDVLDNWGQGTLVTVSS
VL: DIQMTQSPSSLSASVGDRVTITCSATQDISNYLNWYQQKPGKAPKLLIYFTSNLQSGVPSRFSGSGSGTDFTLTISSLQPEDFATYYCQQYRKLPWTFGQGTKLEIKR
B14: AB200-R1a-Fab_VH27 (Fab, V domains shown)
VH: QVQLVQSGAEVKKPGSSVKVSCKATGGTFSNYWMHWVRQAPGQGLEWMGAIYRGHSDTYYNQKFRGRVTITADKSTSTAYMELSSLRSEDTAVYYCARGAIYHGYDVLDNWGQGTLVTVSS
VL: DIQMTQSPSSLSASVGDRVTITCSATQDISNYLNWYQQKPGKAPKLLIYFTSNLQSGVPSRFSGSGSGTDFTLTISSLQPEDFATYYCQQYRKLPWTFGQGTKLEIKR
B15: AB200-R1a-Fab_VH34 (Fab, V domains shown)
VH: QVQLVQSGAEVKKPGSSVKVSCKASGGTFSNYYLHWVRQAPGQGLEWMGATYRGHSDTYYNQKFKGRVTITADKSTSTAYMELSSLRSEDTAVYYCARGAIYNGYDVLDNWGQGTLVTVSS
VL: DIQMTQSPSSLSASVGDRVTITCSATQDISNYLNWYQQKPGKAPKLLIYFTSNLQSGVPSRFSGSGSGTDFTLTISSLQPEDFATYYCQQYRKLPWTFGQGTKLEIKR
B16: AB200-R1a-Fab_VH31 (Fab, V domains shown)
VH: QVQLVQSGAEVKKPGSSVKVSCKASGGTFSNYWMHWVRQAPGQGLEWMGGTYRGHSDTYFNQKFKGRVTITADKSTSTAYMELSSLRSEDTAVYYCARGAIYHGFDVLDNWGQGTLVTVSS
VL: DIQMTQSPSSLSASVGDRVTITCSATQDISNYLNWYQQKPGKAPKLLIYFTSNLQSGVPSRFSGSGSGTDFTLTISSLQPEDFATYYCQQYRKLPWTFGQGTKLEIKR
B17: AB200-R1a-Fab_VH20 (Fab, V domains shown)
VH: QVQLVQSGAEVKKPGSSVKVSCKASGGTFSNYWMHWVRQAPGQGLEWMGATIRGHSQTYYNQKFQGRVTITADKSTSTAYMELSSLRSEDTAVYYCARGAIYHGYDVLDNWGQGTLVTVSS
VL: DIQMTQSPSSLSASVGDRVTITCSATQDISNYLNWYQQKPGKAPKLLIYFTSNLQSGVPSRFSGSGSGTDFTLTISSLQPEDFATYYCQQYRKLPWTFGQGTKLEIKR
B18: AB200-R1a-Fab_VH36 (Fab, V domains shown)
VH: QVQLVQSGAEVKKPGSSVKVSCKASGGTFSNYWMHWVRQAPGQGLEWMGATFRGHSDTYYNHKFKGRVTITADKSTSTAYMELSSLRSEDTAVYYCARGAIYHGFDVLDNWGQGTLVTVSS
VL: DIQMTQSPSSLSASVGDRVTITCSATQDISNYLNWYQQKPGKAPKLLIYFTSNLQSGVPSRFSGSGSGTDFTLTISSLQPEDFATYYCQQYRKLPWTFGQGTKLEIKR
B19: AB200-R1a-Fab_VH18 (Fab, V domains shown)
VH: QVQLVQSGAEVKKPGSSVKVSCKASGGTFSNYWMHWVRQAPGQGLEWMGATYKGHSDTYYNQKFKGRVTITADESTSTAYMELSSLRSEDTAVYYCARGAIYHGYEVLDNWGQGTLVTVSS
VL: DIQMTQSPSSLSASVGDRVTITCSATQDISNYLNWYQQKPGKAPKLLIYFTSNLQSGVPSRFSGSGSGTDFTLTISSLQPEDFATYYCQQYRKLPWTFGQGTKLEIKR
B20: AB200-R1a-Fab_VH24 (Fab, V domains shown)
VH: QVQLVQSGAEVKKPGSSVKVSCKASGGTFTNYWMHWVRQAPGQGLEWMGATYRGHSNTYYNQKFKGRVTITADKSTSTAYMELSSLRSEDTAVYYCARGAIYHGYDVIDNWGQGTLVTVSS
VL: DIQMTQSPSSLSASVGDRVTITCSATQDISNYLNWYQQKPGKAPKLLIYFTSNLQSGVPSRFSGSGSGTDFTLTISSLQPEDFATYYCQQYRKLPWTFGQGTKLEIKR

Assays:
[1] = target: T1, extracellular domain of human BCMA; assay: Octet BLI; Fab 200 nM
[2] = target: T2, extracellular domain of rhesus monkey BCMA (rhesus monkey, UniProt F7FFA0 1-53); assay: Octet BLI; Fab 200 nM
T2 construct: extracellular domain; also called RhBCMA
T2 sequence (F7FFA0 entry or part of it): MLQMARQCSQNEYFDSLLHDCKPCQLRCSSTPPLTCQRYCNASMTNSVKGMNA

Binder	Kd [1] [nM]	Kd [2] [nM]
B1	21.1	23.4
B2	5.38	12.9
B3	5.23	11.1
B4	1.43	5.12
B5	18.5	35.6
B6	82.7	70.2
B7	4.12	12.1
B8	0.926	2.31
B9	11.7	17.1
B10	20.4	19.9
B11	5.28	10.4
B12	22.3	28.2
B13	8.5	9.49
B14	3.8	7.84
B15	18.9	13.2
B16	9.06	19.2
B17	10.5	15.1
B18	28.1	45.4
B19	7.73	10.6
B20	13.1	24.5
